Source: patent US20190144543A1 (TAYU HUAXIA BIOTECH MEDICAL GROUP, published 2019)
Changes are numbered by the printed parent chain.

B1: Variant 3 (TY101) (humanized, VH variant a / VK variant c) (antibody, V domains shown)
VH: EVQLVESGGGLVQPGGSLRLSCAASGFTFSSYTMSWVRQAPGKGLEWVSYISHGGGDTYYADSVKGRFTISRDNSKNTLYLQMNSLRAEDTAVYYCARHSGYERGYYYVMDYWGQGTLVTVSS
VL: DIQLTQSPDSLSVSLGERATINCKASESVDYYGFSFLNWFQQKPGQPPKLLIYAASNRQSGVPDRFSGSGSGTDFTLTISSLQAEDVAVYFCQQSKEVPWTFGQGTKLEIKR
notes: hIgG4 is the negative control; also called mutant combination 3
B2: TY101-4G1 (antibody, V domains shown)
VH: B1 VH
VL: B1 VL
notes: TY101 is Variant 3 (VH a, VK c); isotype control is hIgG4; also called TY101 clone TY101-4G1
B3: TY101-01-09 (antibody, V domains shown)
VH: B1 VH
VL: B1 VL
notes: TY101 is Variant 3 (VH a, VK c); isotype control is hIgG4; also called TY101 clone TY101-01-09
B4: TY101-04-T3-05 (antibody, V domains shown)
VH: B1 VH
VL: B1 VL
notes: TY101 is Variant 3 (VH a, VK c); isotype control is hIgG4; also called TY101 clone TY101-04-T3-05
B5: Variant 4 (humanized, VH variant b / VK variant a) (antibody, V domains shown)
VH: B1 VH with A61P
VL: B1 VL with Q3V, L4M, S12A, A25S, Q59E, F91Y
notes: also called mutant combination 4

What was measured:
[1] = molecular target: T1, human PD-1 (hPD-1) expressed on cells (human, UniProt Q15116 25-288); test: cell based RBA (hPD-1/hPD-L1): blocking of Biotin-hPD-L1 binding to CHOK1-hPD-1 cells, flow cytometry
T1 sequence (Q15116 25-288): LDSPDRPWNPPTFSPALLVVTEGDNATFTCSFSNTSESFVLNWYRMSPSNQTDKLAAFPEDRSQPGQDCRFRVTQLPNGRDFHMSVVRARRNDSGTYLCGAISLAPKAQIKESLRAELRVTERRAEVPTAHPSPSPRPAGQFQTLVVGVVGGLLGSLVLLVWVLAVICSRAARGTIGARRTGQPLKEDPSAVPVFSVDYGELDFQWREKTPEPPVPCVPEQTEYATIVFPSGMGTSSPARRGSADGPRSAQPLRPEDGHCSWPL

[2] = molecular target: T1, human PD-1 (hPD-1) expressed on cells
[3] = molecular target: T1, human PD-1 (hPD-1) expressed on cells; test: cell-based or functional assay
[4] = molecular target: T2, hPD-1mIg fusion protein (human; mouse, UniProt Q15116 25-170); test: SPR, Biacore T200, hPD-1mIg immobilized at 33 RU on CM5, antibody as analyte
T2 construct: extracellular domain; also called hPD-mIg; not shown: CH2-CH3 domain of mouse IgG2a heavy chain (plasmid pmIgG)
T2 sequence (Q15116 25-170): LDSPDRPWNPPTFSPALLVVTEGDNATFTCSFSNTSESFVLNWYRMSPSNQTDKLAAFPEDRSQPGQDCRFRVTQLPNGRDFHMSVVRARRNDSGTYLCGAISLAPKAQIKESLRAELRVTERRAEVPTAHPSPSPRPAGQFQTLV

[5] = molecular target: T3, cynomolgus monkey PD-1 (cPD-1) expressed on cells (cynomolgus monkey, UniProt B0LAJ3 25-288); test: flow cytometry, FACS binding to CHOK1-cPD-1 cells
T3 construct: also called CHOK1-cPD-1; PD-1 on cynomolgus monkey T cell
T3 sequence (B0LAJ3 entry or part of it limits assumed): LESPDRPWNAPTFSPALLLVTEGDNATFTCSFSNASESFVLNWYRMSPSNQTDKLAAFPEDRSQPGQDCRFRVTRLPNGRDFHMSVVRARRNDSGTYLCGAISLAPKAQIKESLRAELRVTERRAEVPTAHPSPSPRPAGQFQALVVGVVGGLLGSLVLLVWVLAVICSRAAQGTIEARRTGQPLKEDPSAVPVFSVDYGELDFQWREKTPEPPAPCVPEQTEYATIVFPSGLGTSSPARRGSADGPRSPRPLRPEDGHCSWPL
Protocol: (§1) The bindings of the antibodies to hPD-1 and cross-reactivity to cynomolgus monkey PD-1 (cPD-1) were tested using hPD-1 or cPD-1 expressing CHOK1 cells by flow cytometry. CHOK1-hPD-1, CHOK1-cPD-1 and CHOK1 blank cells were incubated with a serial dilution of test articles followed by Alexa Fluor® 488 conjugated goat anti-human IgG (H+L) antibody, and analyzed using a FACSCanto II (BD Biosciences, San Jose, Calif.).

[6] = molecular target: T1, human PD-1 (hPD-1) expressed on cells; test: flow cytometry, FACS binding to CHOK1-hPD-1 cells
Protocol: as §1

[7] = molecular target: T2, hPD-1mIg fusion protein; test: SPR, Biacore T100, hPD-1mIg immobilized on CM5, antibody as analyte
Protocol: The binding affinity and kinetics of the humanized PD-1 mAbs interact with hPD-1 protein was assessed with Biacore T100 (GE Healthcare Life Sciences). […] Nine different concentrations were tested for each sample. Detailed binding kinetic parameters (association rate, Ka, dissociation rate, Kd, and affinity constant, KD) can be determined by full kinetic analysis.

Molecule | EC50 (read off the curve) [5] [nM] | EC50 (read off the curve) [6] [nM] | further results
control human IgG4 (antibody) |  |  | Inhibition rate [1]: 4.8%; EC50 of luciferase signal (RLU), PD-1/PD-L1 Blockade Bioassay with Jurkat-PD1 and CHO-PD-L1 cells; the Ctrl IgG4 curve is flat at about 270000 RLU and never rises [2]: 12.4 µg/mL
B1 |  |  | EC50 of luciferase signal (RLU), PD-1/PD-L1 Blockade Bioassay with Jurkat-PD1 and CHO-PD-L1 cells [3]: 0.224 µg/mL; fold slower dissociation rate Kd than the two commercial antibodies (Pembrolizumab, Nivolumab) [4]: 10 times
B2 | ~2 | ~0.9 | 
B3 | ~2 | ~0.9 | 
B4 | ~2 | ~0.9 | 
B5 |  |  | kon [7]: 119000 M⁻¹ s⁻¹
